In patent publication US5710252:

Molecular target: FLAG epitope Trypsin site N-terminally tagged 9 repeat GG biopolymer (SEQ ID NO:20)

completeness of the Trypsin cleavage reaction, by relative mobility on SDS gels: 100%
Substance: Trypsin (type XI DPCC treated) (enzyme)
